From patent US6750028B1, “Anti-fibrotic agent assay” (Ethicon, Inc, priority 1996, dated 2004)

Tested on: TGF-β1 activation
Experiment: Macrophage activation assay (IC-21 macrophages, LPS, fetal fibroblast conditioned media, ELISA)
Assay type: cell-based, mouse
Protocol: Cultured macrophages were lifted from the dish with 3 ml of PBS. The PBS was balanced with 15 ml of RPMI-1640 containing 10% FBS. The cells were counted and then seeded in 100 mm plates at 1×10^6 cells/dish. When the cultured macrophages reached approximately 70% confluency (2-3 days) they were washed with PBS and RPMI-1640 medium containing 5% FBS and 10 ng/ml LPS was applied (FIG. 1). After 24 h of activation with LPS the cells were washed gently with PBS. At this point conditioned medium from confluent fetal dermal fibroblasts was collected and 5 ml was distributed into each dish containing macrophages. The cells were incubated for an additional 24 h, the media were collected, spun down at 600×g for 10 min and stored at 4° C. before TGF-β1 evaluation by ELISA. Each condition was done in duplicate. The cells, washed with PBS, were harvested for total RNA extraction.
Fetal dermal fibroblasts were seeded in 100 mm dishes at 1×10^6 cell/dish. The cells were grown to confluency (2-3 days). The cultures were washed with PBS and fresh medium, either DMEM supplemented with 10% FBS or AIM-V medium (a serum free medium) for serum-free conditions, was applied for 24 h (FIG. 1). The medium was collected and combined in order to obtain a homogenous pool of latent TGF-β1. The collection of the medium was done just prior to application in the macrophage assay. […]

B1: IGFBP-1: Purified rat Insulin-like Growth Factor Binding Protein 1 (protein, UniProt P21743 26-272, looked up)
Insulin-like growth …: APQPWHCAPCTAERLELCPPVPASCPEISRPAGCGCCPTCALPLGAACGVATARCAQGLSCRALPGEPRPLHALTRGQGACVLEPAAPATSSLSGSQHEEAKAAVASEDELAESPEMTEEQLLDSFHLMAPSREDQPILWNAISTYSSMRAREITDLKKWKEPCQRELYKVLERLAAAQQKAGDEIYKFYLPNCNKNGFYHSKQCETSLDGEAGLCWCVYPWSGKKIPGSLETRGDPNCHQYFNVQN
- effect on IGF-II-mediated inhibition of TGF-β1 activation, in words: able to reverse this inhibition

B2: IGFBP-2: Purified rat Insulin-like Growth Factor Binding Protein 2 (protein, UniProt P12843 35-304, looked up)
Insulin-like growth …: EVLFRCPPCTPERLAACGPPPDAPCAELVREPGCGCCSVCARQEGEACGVYIPRCAQTLRCYPNPGSELPLKALVTGAGTCEKRRVGATPQQVADSEDDHSEGGLVENHVDGTMNMLGGSSAGRKPPKSGMKELAVFREKVNEQHRQMGKGAKHLSLEEPKKLRPPPARTPCQQELDQVLERISTMRLPDDRGPLEHLYSLHIPNCDKHGLYNLKQCKMSLNGQRGECWCVNPNTGKPIQGAPTIRGDPECHLFYNEQQENDGAHAQRVQ
- effect on IGF-II-mediated inhibition of TGF-β1 activation, in words: no effect on IGF-II action
